For assay [1], the target named is EXO1-FLAG, full length, as printed for Fig. 3h and Fig. 6d (UniProt Q9UQ84). Description: pull-down (anti-FLAG immobilised EXO1-FLAG, Western blot quantification). The note with it: n = 3 independent experiments, parent: est. 1.0, read off a plot. (Immunoblotting shows a protein as a band on a membrane.)
In assay [2] the target is T1, EXO1-FLAG, full length, for Fig. 3h and Fig. 6d, Q9UQ84.
T1 chain: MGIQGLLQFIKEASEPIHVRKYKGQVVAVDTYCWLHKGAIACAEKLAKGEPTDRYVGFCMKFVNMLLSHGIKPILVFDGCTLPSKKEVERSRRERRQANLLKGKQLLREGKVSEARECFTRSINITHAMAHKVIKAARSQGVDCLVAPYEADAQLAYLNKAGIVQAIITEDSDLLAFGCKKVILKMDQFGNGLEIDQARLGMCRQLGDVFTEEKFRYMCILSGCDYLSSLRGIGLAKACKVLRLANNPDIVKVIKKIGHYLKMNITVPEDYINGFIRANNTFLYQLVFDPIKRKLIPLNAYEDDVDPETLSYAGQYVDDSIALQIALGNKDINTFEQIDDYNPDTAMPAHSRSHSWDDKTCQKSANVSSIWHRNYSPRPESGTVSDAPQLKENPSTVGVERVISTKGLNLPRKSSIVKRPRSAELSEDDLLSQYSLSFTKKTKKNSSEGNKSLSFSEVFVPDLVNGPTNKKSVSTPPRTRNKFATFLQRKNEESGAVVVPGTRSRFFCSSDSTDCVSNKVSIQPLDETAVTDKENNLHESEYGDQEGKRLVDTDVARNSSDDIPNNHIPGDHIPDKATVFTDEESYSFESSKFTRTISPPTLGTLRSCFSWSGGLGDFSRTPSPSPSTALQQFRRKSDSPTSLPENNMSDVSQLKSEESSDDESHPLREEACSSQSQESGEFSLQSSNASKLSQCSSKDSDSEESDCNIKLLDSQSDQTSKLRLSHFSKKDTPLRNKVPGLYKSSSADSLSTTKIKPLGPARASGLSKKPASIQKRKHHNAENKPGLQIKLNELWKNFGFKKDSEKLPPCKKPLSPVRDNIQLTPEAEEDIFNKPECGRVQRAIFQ
The assay is described as above. The note with it: chain shown with the change; n = 3 independent experiments; p < 0.0001 vs WT; parent: est. 1.0; read off a plot.

In the next assay the target is T2, Human MutLγ (MLH1-MLH3) (human, UniProt P40692 1-756; Q9UHC1 1-1453).
T2 construct: MLH1, human, from pFB-FLAG-hMLH1co; MLH3, human, from pFB-His-MBP-hMLH3co; The methods say that the MBP tag was cleaved with PreScission protease; also called FLAG-MLH1 and MBP-MLH3; FLAG-MLH1-MBP-MLH3; source: Sf9, purified (amylose resin, M2 anti-FLAG resin); not shown: FLAG, N-terminal, kept; MBP, N-terminal, kept
Description: pull-down; MutLγ (bait, 1 μg) held by anti-MLH1 antibody on protein G magnetic beads; EXO1-FLAG variants (prey, 1 μg) added; 25 mM Tris-HCl pH 7.5, 3 mM EDTA, 1 mM DTT, 20 μg/ml BSA, 50 mM NaCl, 4 °C, 1 h; washes with 100 mM NaCl, 0.05% Triton X-100; Western blot. The settings on record: both partners purified.

Consider “Human MutSγ (MSH4-MSH5) (from UniProt O15457;O43196) MSH4:F288E”, for which the ratio to parent in assay [1] (p = 0.19 vs WT) was found to be 0.73 arb. units.

As to “Human MutSγ (MSH4-MSH5) (from UniProt O15457;O43196) MSH4:F225E”, the ratio to parent in assay [1] (p = 0.22 vs WT) was determined as 0.66 arb. units. As to “Human MutSγ (MSH4-MSH5) (from UniProt O15457;O43196) MSH4:F225E; MSH4:F288E”, the ratio to parent in assay [1] (p = 0.005 vs WT) came out at 0.2 arb. units.

B1: Human MutSγ (MSH4-MSH5), O15457;O43196 MSH4:T238E; MSH4:Y244D; MSH4:F288E (protein)
chain 1: MLRPEISSTSPSAPAVSPSSGETRSPQGPRYNFGLQETPQSRPSVQVVSASTCPGTSGAAGDRSSSSSSLPCPAPNSRPAQGSYFGNKRAYAENTVASNFTFGASSSSARDTNYPQTLKTPLSTGNPQRSGYKSWTPQVGYSASSSSAISAHSPSVIVAVVEGRGLARGEIGMASIDLKNPQIILSQFADNTTYAKVITKLKILSPLEIIMSNTACAVGNSTKLFTLITENFKNVNFETIQRKDFNETKGLEYIEQLCIAEFSTVLMEVQSKYYCLAAVAALLKYVEEIQNSVYAPKSLKICFQGSEQTAMIDSSSAQNLELLINNQDYRNNHTLFGVLNYTKTPGGSRRLRSNILEPLVDIETINMRLDCVQELLQDEELFFGLQSVISRFLDTEQLLSVLVQIPKQDTVNAAESKITNLIYLKHTLELVDPLKIAMKNCNTPLLRAYYGSLEDKRFGIILEKIKTVINDDARYMKGCLNMRTQKCYAVRSNINEFLDIARRTYTEIVDDIAGMISQLGEKYSLPLRTSFSSARGFFIQMTTDCIALPSDQLPSEFIKISKVKNSYSFTSADLIKMNERCQESLREIYHMTYMIVCKLLSEIYEHIHCLYKLSDTVSMLDMLLSFAHACTLSDYVRPEFTDTLAIKQGWHPILEKISAEKPIANNTYVTEGSNFLIITGPNMSGKSTYLKQIALCQIMAQIGSYVPAEYSSFRIAKQIFTRISTDDDIETNSSTFMKEMKEIAYILHNANDKSLILIDELGRGTNTEEGIGICYAVCEYLLSLKAFTLFATHFLELCHIDALYPNVENMHFEVQHVKNTSRNKEAILYTYKLSKGLTEEKNYGLKAAEVSSLPPSIVLDAKEITTQITRQILQNQRSTPEMERQRAVYHLATRLVQTARNSQLDPDSLRIYLSNLKKKYKEDFPRTEQVPEKTEE
chain 2: MASLGANPRRTPQGPRPGAASSGFPSPAPVPGPREAEEEEVEEEEELAEIHLCVLWNSGYLGIAYYDTSDSTIHFMPDAPDHESLKLLQRVLDEINPQSVVTSAKQDENMTRFLGKLASQEHREPKRPEIIFLPSVDFGLEISKQRLLSGNYSFIPDAMTATEKILFLSSIIPFDCLLTVRALGGLLKFLGRRRIGVELEDYNVSVPILGFKKFMLTHLVNIDQDTYSVLQIFKSESHPSVYKVASGLKEGLSLFGILNRCHCKWGEKLLRLWFTRPTHDLGELSSRLDVIQFFLLPQNLDMAQMLHRLLGHIKNVPLILKRMKLSHTKVSDWQVLYKTVYSALGLRDACRSLPQSIQLFRDIAQEFSDDLHHIASLIGKVVDFEGSLAENRFTVLPNIDPEIDEKKRRLMGLPSFLTEVARKELENLDSRIPSCSVIYIPLIGFLLSIPRLPSMVEASDFEINGLDFMFLSEEKLHYRSARTKELDALLGDLHCEIRDQETLLMYQLQCQVLARAAVLTRVLDLASRLDVLLALASAARDYGYSRPRYSPQVLGVRIQNGRHPLMELCARTFVPNSTECGGDKGRVKVITGPNSSGKSIYLKQVGLITFMALVGSFVPAEEAEIGAVDAIFTRIHSCESISLGLSTFMIDLNQVAKAVNNATAQSLVLIDEFGKGTNTVDGLALLAAVLRHWLARGPTCPHIFVATNFLSLVQLQLLPQGPLVQYLTMETCEDGNDLVFFYQVCEGVAKASHASHTAAQAGLPDKLVARGKEVSDLIRSGKPIKPVKDLLKKNQMENCQTLVDKFMKLDLEDPNLDLNVFMSQEVLPAATSIL
For B1, the ratio to parent in assay [2] came out at 0.08 arb. units.

B2: Nuclease-deficient human EXO1 (D173A)-FLAG, full length (enzyme, UniProt Q9UQ84 1-846, looked up)
chain: MGIQGLLQFIKEASEPIHVRKYKGQVVAVDTYCWLHKGAIACAEKLAKGEPTDRYVGFCMKFVNMLLSHGIKPILVFDGCTLPSKKEVERSRRERRQANLLKGKQLLREGKVSEARECFTRSINITHAMAHKVIKAARSQGVDCLVAPYEADAQLAYLNKAGIVQAIITEDSALLAFGCKKVILKMDQFGNGLEIDQARLGMCRQLGDVFTEEKFRYMCILSGCDYLSSLRGIGLAKACKVLRLANNPDIVKVIKKIGHYLKMNITVPEDYINGFIRANNTFLYQLVFDPIKRKLIPLNAYEDDVDPETLSYAGQYVDDSIALQIALGNKDINTFEQIDDYNPDTAMPAHSRSHSWDDKTCQKSANVSSIWHRNYSPRPESGTVSDAPQLKENPSTVGVERVISTKGLNLPRKSSIVKRPRSAELSEDDLLSQYSLSFTKKTKKNSSEGNKSLSFSEVFVPDLVNGPTNKKSVSTPPRTRNKFATFLQRKNEESGAVVVPGTRSRFFCSSDSTDCVSNKVSIQPLDETAVTDKENNLHESEYGDQEGKRLVDTDVARNSSDDIPNNHIPGDHIPDKATVFTDEESYSFESSKFTRTISPPTLGTLRSCFSWSGGLGDFSRTPSPSPSTALQQFRRKSDSPTSLPENNMSDVSQLKSEESSDDESHPLREEACSSQSQESGEFSLQSSNASKLSQCSSKDSDSEESDCNIKLLDSQSDQTSKLRLSHFSKKDTPLRNKVPGLYKSSSADSLSTTKIKPLGPARASGLSKKPASIQKRKHHNAENKPGLQIKLNELWKNFGFKKDSEKLPPCKKPLSPVRDNIQLTPEAEEDIFNKPECGRVQRAIFQ
notes: EXO1, human, from pFB-MBP-PP-EXO1(D173A)-1xFLAG; last residue at position 846; also called nuclease-dead EXO1 (D173A); source: Sf9, purified (amylose resin, PreScission cleavage, FLAG M2 resin); not shown: MBP, N-terminal, cleaved; FLAG, C-terminal, kept
B2: the binding result in the assay with Human MutLγ (MLH1-MLH3) is on record as “binds”.

B3: EXO1 (D173A I403E)-FLAG (enzyme, human, UniProt Q9UQ84 1-846, looked up)
chain: MGIQGLLQFIKEASEPIHVRKYKGQVVAVDTYCWLHKGAIACAEKLAKGEPTDRYVGFCMKFVNMLLSHGIKPILVFDGCTLPSKKEVERSRRERRQANLLKGKQLLREGKVSEARECFTRSINITHAMAHKVIKAARSQGVDCLVAPYEADAQLAYLNKAGIVQAIITEDSALLAFGCKKVILKMDQFGNGLEIDQARLGMCRQLGDVFTEEKFRYMCILSGCDYLSSLRGIGLAKACKVLRLANNPDIVKVIKKIGHYLKMNITVPEDYINGFIRANNTFLYQLVFDPIKRKLIPLNAYEDDVDPETLSYAGQYVDDSIALQIALGNKDINTFEQIDDYNPDTAMPAHSRSHSWDDKTCQKSANVSSIWHRNYSPRPESGTVSDAPQLKENPSTVGVERVESTKGLNLPRKSSIVKRPRSAELSEDDLLSQYSLSFTKKTKKNSSEGNKSLSFSEVFVPDLVNGPTNKKSVSTPPRTRNKFATFLQRKNEESGAVVVPGTRSRFFCSSDSTDCVSNKVSIQPLDETAVTDKENNLHESEYGDQEGKRLVDTDVARNSSDDIPNNHIPGDHIPDKATVFTDEESYSFESSKFTRTISPPTLGTLRSCFSWSGGLGDFSRTPSPSPSTALQQFRRKSDSPTSLPENNMSDVSQLKSEESSDDESHPLREEACSSQSQESGEFSLQSSNASKLSQCSSKDSDSEESDCNIKLLDSQSDQTSKLRLSHFSKKDTPLRNKVPGLYKSSSADSLSTTKIKPLGPARASGLSKKPASIQKRKHHNAENKPGLQIKLNELWKNFGFKKDSEKLPPCKKPLSPVRDNIQLTPEAEEDIFNKPECGRVQRAIFQ
notes: EXO1, human, derivative of pFB-MBP-PP-EXO1(D173A)-1xFLAG; also called EXO1 (I403E); source: Sf9, purified (amylose resin, PreScission cleavage, FLAG M2 resin); not shown: MBP, N-terminal, cleaved; FLAG, C-terminal, kept
In the case of B3, the binding result with Human MutLγ (MLH1-MLH3) is reported as “binds”.

B4: EXO1 (D173A MIP)-FLAG (F506A and F507A in the MIP motif) (enzyme, human, UniProt Q9UQ84 1-846, looked up)
chain: MGIQGLLQFIKEASEPIHVRKYKGQVVAVDTYCWLHKGAIACAEKLAKGEPTDRYVGFCMKFVNMLLSHGIKPILVFDGCTLPSKKEVERSRRERRQANLLKGKQLLREGKVSEARECFTRSINITHAMAHKVIKAARSQGVDCLVAPYEADAQLAYLNKAGIVQAIITEDSALLAFGCKKVILKMDQFGNGLEIDQARLGMCRQLGDVFTEEKFRYMCILSGCDYLSSLRGIGLAKACKVLRLANNPDIVKVIKKIGHYLKMNITVPEDYINGFIRANNTFLYQLVFDPIKRKLIPLNAYEDDVDPETLSYAGQYVDDSIALQIALGNKDINTFEQIDDYNPDTAMPAHSRSHSWDDKTCQKSANVSSIWHRNYSPRPESGTVSDAPQLKENPSTVGVERVISTKGLNLPRKSSIVKRPRSAELSEDDLLSQYSLSFTKKTKKNSSEGNKSLSFSEVFVPDLVNGPTNKKSVSTPPRTRNKFATFLQRKNEESGAVVVPGTRSRAACSSDSTDCVSNKVSIQPLDETAVTDKENNLHESEYGDQEGKRLVDTDVARNSSDDIPNNHIPGDHIPDKATVFTDEESYSFESSKFTRTISPPTLGTLRSCFSWSGGLGDFSRTPSPSPSTALQQFRRKSDSPTSLPENNMSDVSQLKSEESSDDESHPLREEACSSQSQESGEFSLQSSNASKLSQCSSKDSDSEESDCNIKLLDSQSDQTSKLRLSHFSKKDTPLRNKVPGLYKSSSADSLSTTKIKPLGPARASGLSKKPASIQKRKHHNAENKPGLQIKLNELWKNFGFKKDSEKLPPCKKPLSPVRDNIQLTPEAEEDIFNKPECGRVQRAIFQ
notes: EXO1, human, derivative of pFB-MBP-PP-EXO1(D173A)-1xFLAG; also called EXO1 MIP mutants; MIP mutations; source: Sf9, purified (amylose resin, PreScission cleavage, FLAG M2 resin); not shown: MBP, N-terminal, cleaved; FLAG, C-terminal, kept
Consider B4, for which the binding result with Human MutLγ (MLH1-MLH3) is given as “binds”.

The values are drawn from publication PMC12049449, “EXO1 promotes the meiotic MLH1-MLH3 endonuclease through conserved interactions with MLH1, MSH4 and DNA” (Nature Communications, 2025).
